Experimental data taken from US20240398899A1 (priority 2021, published 2024).
Read-outs that look alike come from different tables or passages of the source.

Columns and labels:
[1] = test system: SH-SY5Y neuronal cells; assay: Annexin-V staining of apoptotic cells against MPP+ iodide damage; type: cell-based, human; details: MPP+ iodide 1 mM; for % Decrease in Apoptotic cells (wrt MPP + iodide): Annexin
Experimental: After 24 h of treatment, cells were exposed to damage (MPP+ iodide 1 mM) for 24 h. […] Untreated cells were included as control. Cells treated with Deprenyl served as positive control. After treatment, cells were harvested by trypsinization and processed for Annexin V assay as follows: Cell were gently harvested into pre-labeled sterile centrifuge tubes and centrifuged at 300×g for 5-7 min. After 24 h of treatment, cells were exposed to damage (MPP+ iodide 1 mM) for 24 h. Cells treated with MPP+ iodide alone were included as Control. Untreated cells were included as negative control. Cells treated with Deprenyl served as positive control. After treatment, cells were harvested by trypsinization and processed for Annexin V assay as follows: Cell were gently harvested into pre-labelled sterile centrifuge tubes and centrifuged at 300×g for 5-7 min. Supernatant were discarded and the pellet was resuspended in 200 μl of fresh culture medium. 100 μl of cell suspension was transferred into pre-labeled sterile centrifuge tubes. 100 μl of Annexin-V reagent was added to each tube and incubated for 30 min at RT in dark. Cells stained for Annexin-V were then transferred into 96-well plates and acquired on flow cytometer (Guava technologies). Percentage of Annexin-V positive cells was determined.
Percent inhibition in apoptotic cells=[(% Annexin positive cells in MPP+iodide alone)−(% Annexin positive cells in Recombinant Lectin having SEQ ID NO:1+MPP+iodide)/% Annexin positive cells in MPP+iodide alone]*100

[2] = test system: Acetylcholinesterase; details: mice; for brain Acetylcholine esterase Mean: scopolamine 2.5 mg/kg i.p.
Experimental: Healthy male Swiss albino mice (n=48) were selected and randomized based on body weight (n=8 per Group) into 6 groups as mentioned in table no-1. The control group G1 was treated intravenously with vehicle daily till the experiment completion. Group G2 was considered as negative control and treated with vehicle. […] Group G4, G5 &G6 animals were treated with the test item recombinant lectin protein having SEQ ID NO: 1 at the dose of 0.5 mg/kg, 0.25 mg/kg and 0.125 mg/kg, respectively. All the test items were given intravenously (i.v) daily at the dose volume of 5 ml/kg for 14 Days. The body weight was recorded daily throughout the experimental period. […] One hour after the last dose of test items (on Day 14) all the animals were injected with scopolamine hydrobromide at the dose of 2.5 mg/kg, i.p., except the normal control group G1. Passive avoidance test was conducted 30 min after scopolamine injection.
After passive avoidance test screening models of memory, the animals were sacrificed humanely. The whole brain was carefully removed from the skull and weighed. Brain was dissected into two portions
10% w/v brain homogenate (100 mg/mL) was prepared by homogenizing it in ice-chilled phosphate buffer. The homogenate was subsequently centrifuged using a refrigerated centrifuge at 3000 rpm for 10 min, and the supernatant was separated and used for the biochemical estimations.
Following biomarkers was estimated using ELISA kit as per manufacturer's instruction. • Brain NGF (Nerve Growth Factor), CUSABIO, Catalog No. CSB-E04684m • Acetylcholinesterase, CUSABIO, Catalog No. CSB-E17521m • TNF alpha, CUSABIO, Catalog No. CSB-E04741m

[3] = test system: neuronal cells (pc12); assay: Neurite formation against MPP+ induced damage; type: cell-based, rat; details: NGF (200 ng/ml) + MPP (100 μM)
Experimental: Cells were counted using haemocytometer and plated in 24-well plates at the densities corresponding to 1×10^4 cells/well/500 μl of the growth medium. The cells were then incubated for 48 h in 5% CO2 incubator at 37° C. Effect of Recombinant Lectin having SEQ ID NO: 1 on neurite formation was evaluated in both basal and MPP+ damage induced model.
The percent protection in neurite formation against MPP+ induced damage was determined as follows:
[formula] • Where, • A=No of neurites in Cells treated with NGF+SEQ ID NO: 1+MPP+ • B=No of neurites in Cells treated with NGF+MPP+ • C=No of Neurites Cells treated with NGF alone

B1: SEQ ID NO: 1: variant of the S. rolfsii lectin amino acid sequence (reported as Rec-2 in WO2010/095143) (protein)
chain: TYKITVRVYQTNPDAFFHPVEKTVWKYANGGTWTITDDQHVLTMGGSGTSGTLRFHADNGESFTATFGVHNYKRWCDIVTNLAADETGMVINQQYYSQKNREEARERQLSNYQVKNAKGRNFQIVYTEAEGNDLHANLIIG
% Apoptotic cells (Anenxin + ve) ([1]; 0.001 μg/mL): 1.8% | % Decrease in Apoptotic cells (wrt MPP + iodide) ([1]; 0.001 μg/mL): 56.8% | % Apoptotic cells (Anenxin + ve) ([1]; 0.01 μg/mL): 1.2% | % Decrease in Apoptotic cells (wrt MPP + iodide) ([1]; 0.01 μg/mL): 70.4% | % Apoptotic cells (Anenxin + ve) ([1]; 0.05 μg/mL): 2.6% | % Decrease in Apoptotic cells (wrt MPP + iodide) ([1]; 0.05 μg/mL): 35.8% | % Apoptotic cells (Anenxin + ve) ([1]; 0.1 μg/mL): 3.1% | % Decrease in Apoptotic cells (wrt MPP + iodide) ([1]; 0.1 μg/mL): 23.5% | % Apoptotic cells (Anenxin + ve) ([1]; 1 μg/mL): 2.3% | % Decrease in Apoptotic cells (wrt MPP + iodide) ([1]; 1 μg/mL): 43.2% | effect on scopolamine-increased AChE activity in the brain ([2]; 0.5 mg/kg pretreatment): significantly (p<0.001) attenuated | brain Acetylcholine esterase Mean ([2]; G4: 0.5 mg/kg i.v. qdx14): 4.47 mU/ml | brain Acetylcholine esterase Mean ([2]; G5: 0.25 mg/kg i.v. qdx14): 6.27 mU/ml | brain Acetylcholine esterase Mean ([2]; G6: 0.125 mg/kg i.v. qdx14): 6.59 mU/ml | % Protection in formation of Neurites (w.r.t. MPP+) ([3]; 0.001 μg/ml): 7.3% | Average No. of Neurites ([3]; 0.001 μg/ml): 21 | % Protection in formation of Neurites (w.r.t. MPP+) ([3]; 0.01 μg/ml): 43.6% | Average No. of Neurites ([3]; 0.01 μg/ml): 28 | % Protection in formation of Neurites (w.r.t. MPP+) ([3]; 0.1 μg/ml): 76.4% | Average No. of Neurites ([3]; 0.1 μg/ml): 34 | % Protection in formation of Neurites (w.r.t. MPP+) ([3]; 1 μg/ml): 78.2% | Average No. of Neurites ([3]; 1 μg/ml): 34 | % Protection in formation of Neurites (w.r.t. MPP+) ([3]; 5 μg/ml): 58.2% | Average No. of Neurites ([3]; 5 μg/ml): 30
